This data set concerns the molecule itself. The data set is described as follows: AUC.

B1: C.Esp1396I controller (C) protein (natural protein, UniProt Q8GGH0 1-79, looked up)
chain: MESFLLSKVSFVIKKIRLEKGMTQEDLAYKSNLDRTYISGIERNSRNLTIKSLELIMKGLEVSDVVFFEMLIKEILKHD
For the protein B1, the Kd (in general, the free concentration of one partner at which half of the binding sites on the other are occupied at equilibrium, for simple one-to-one binding) was ~600 nM and the stoichiometry N – broadly, a count of units in the complex or per binding partner – worked out at 2.

The values above are taken from publication PMC2691842 (Nucleic Acids Research, 2009).
